The values that follow come from paper PMC5301497, “Dimerisation induced formation of the active site and the identification of three metal sites in EAL-phosphodiesterases” (Scientific Reports, 2017).

Series [1] deals with the molecule itself. Put plainly: crystal structure; MucR^EAL with c-di-GMP/Mg^2+, P2_(1), 2 molecules/AU, 2.27 Å; Morpheus Buffer System 1 pH 6.5, 21 °C.
Series [2] concerns the molecule itself. Put plainly: crystal structure; PA3825^EAL metal-free apo, tetragonal crystal P4_(3)2_(1)2, 1 molecule/AU, 1.60 Å.

B1: EAL domain of MucR (residues 425–685) (domain or fragment, Pseudomonas aeruginosa PAO1, UniProt Q9I310 425-685, looked up)
chain: SSMNANAQEQLQLLHDLRQALERRQLVLHYQPKVLAPNGPMIGVEALLRWEHPQHGLITPGQFLPLAEKTGLIVQIGEWVLDEACRQMRLWLDGGHADWNIAVNLSALQFAHAGLVDSVRNALLRHSLEPSHLILEVTESTAMRDADASLVILEQLSAMGVGISIDDFGTGYSSLLYLKRLPASELKIDRGFINELAHDSDDAAIVSAIVALGRTLNLKIVAEGVETEAQQEFLTRLGCNSLQGFLLGRPMPAEQLLASVA
notes: MucR (PA1727), Pseudomonas aeruginosa PAO1, EAL phosphodiesterase domain, residues 425-685; Cloned into pET-28a through NdeI and HindIII, which would give an N-terminal His6 tag with a thrombin site (surmised); no cleavage of the tag is described; Seen as the 'classic dimer' in the crystal, 2 molecules in the asymmetric unit; also called MucR^EAL; MucR-EAL; source: E. coli BL21 DE3, purified …
As to B1, the binding result in series [1] is listed as “binds”.

B2: EAL domain of PA3825 (residues 255–517) (domain or fragment, Pseudomonas aeruginosa PAO1, UniProt Q9HXH7 255-517, looked up)
chain: SRRVASPSSELRRALEANEFIPYYQPLSPGQGGRWIGVEVLMRWRHPREGLIRPDLFIPFAERSGLIVPMTRALMRQVAEDLGGHAGKLEPGFHIGFNISATHCHELALVDDCRELLAAFPPGHITLVLELTERELIESSEVTDRLFDELHALGVKIAIDDFGTGHSSLAYLRKFQVDCLKIDQSFVARIGIDTLSGHILDSIVELSAKLDLDIVAEGVETPEQRDYLAARGVDYLQGYLIGRPMPLESLLSSLTVQEGQGAS
notes: PA3825, Pseudomonas aeruginosa PAO1, EAL phosphodiesterase domain, residues 255-517; The residue numbers of the results (Glu39, Asp160, Asp161, Glu217, loop 160-170) cannot count on the full-length protein; they seem to count on the crystallised domain or the PDB entries; Cloned into the popinF vector; Seen as a 'closed dimer' in the crystal; also called PA3825^EAL; PA3825-EAL; source: E. coli …
Consider B2, for which the binding result in series [2] is on record as “binds”.
